According to patent US20210032360A1 (BERLIN CHEMIE, published 2021):

T1: Bone marrow stromal antigen 1 (BST1), human, on the cell surface (human, UniProt Q10588 33-293)
T1 construct: This is endogenous BST1 on A549, H226 and U937 cells and on primary MDS bone marrow cells; also called ADP-ribosyl cyclase 2; CD157
T1 sequence: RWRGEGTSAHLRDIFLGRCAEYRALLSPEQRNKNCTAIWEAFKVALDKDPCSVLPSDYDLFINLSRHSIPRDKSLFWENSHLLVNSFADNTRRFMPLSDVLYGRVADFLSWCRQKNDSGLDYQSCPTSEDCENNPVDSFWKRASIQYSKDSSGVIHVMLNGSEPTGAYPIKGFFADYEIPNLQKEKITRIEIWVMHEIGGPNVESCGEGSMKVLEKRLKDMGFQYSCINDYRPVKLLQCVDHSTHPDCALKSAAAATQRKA

B1: BST1_A1 (Fab, V domains shown)
VH: QVKLQQSGAELVRPGSSVKISCKASGYAFSNSWINWVKQRPGQGLEWIGQIYPGDYDTNYNGKFKGKATLTADYSSSTAYMQLNSLTSEDSAVYFCARGGSIYYGNLGFFDVWGAGTTVTVSS
VL: EMVLTQSPAIMSTSLGERVTMTCTASSRVSSSYLHWYQQKPGSSPKLWIYSTSNLASGVPARFSGSGSGTSYSLTISSMEAEDAATYYCHQYHRSPYTFGGGTKLEIKR
notes: also called anti-BST1 monoclonal antibody BST1_A1
B2: BST1_A3 (Fab, V domains shown)
VH: QVQLQQSRAELVMPGASVKMSCKTSGYTFSDYWVHWVRQRPGQGLEWIGAIDGSDTFNDYSQKFKGRATLTVDESSSTVYMQLSSLTSEDSAVYYCARGGLLQYWGQGTTLTVSS
VL: DIQLTQSPASLSASVGETVTITCRASENIYSYLAWYQQKQGKSPQLLVYNTKTLGEGVPSRFSGSGSGTQFSLKINSLQPEDFGSYYCQHHYGTPFTFGSGTKLEIKR
notes: they are whole murine Fab chains: bacterial leader, variable domain and constant domain, with a His tag on the heavy chain
B3: BST1_A2 (Fab, V domains shown)
VH: QAYLQQSGPELVKAGASVKMSCKASGYSFIEYTINWVKQSHGKSLEWIGNIDPYYGTTYYNQMFTGKATLTVDQSSNTAYMQLKSLTSEDSAVYFCARGSAWFPYWGQGTLVTVSA
VL: DIVMSQSPAIMSASPGEKVTMTCSASSSVTYMYWYQQKPGSSPRLLIYDTSNLASGVPVRFSGSGSGTSYSLTISRMEAEDTATYYCQQWSNYPLTFGAGTKLELKR
notes: they are whole murine Fab chains: bacterial leader, variable domain and constant domain, with a His tag on the heavy chain; also called anti-BST1 monoclonal antibody BST1_A2

The binders below were run against T1, Bone marrow stromal antigen 1 (BST1), … (assay: flow cytometry on BST1-expressing H226 and A549 cells, PE-labelled secondary antibody, geometric mean fluorescence (PE GMFI); antibody concentration not given).
Experimental: The specificity of antibodies against the BST1 selected in Example 2 was tested by flow cytometry. To test the ability of the antibodies to bind to the cell surface BST1 protein, the antibodies were incubated with the BST1-expressing cells, A549 and H226, from human lung adenocarcinoma and human lung squamous carcinoma, respectively. Cells were washed in FACS buffer (DPBS, 2% FBS), centrifuged and resuspended in 100 μl of the diluted primary BST1 antibody (also diluted in FACS buffer). The antibody-A549 complex was incubated on ice for 60 min and then washed twice with FACS buffer as described above. The cell-antibody pellet was resuspended in 100 μl of the diluted secondary antibody (also diluted in FACS buffer) and incubated on ice for 60 min on ice. The pellet was washed as before and resuspended in 200 μl FACS buffer. The samples were loaded onto the BD FACScanto II flow sytometer and the data analyzed using the BD FACSdiva software.

Binding result, binds:
B1
B2
B3
